Source: IntAct's records for PubMed 24434579

B1: Seipin (Saccharomyces cerevisiae), Q06058 (parent)
chain: MKINVSRPLQFLQWSSYIVVAFLIQLLIILPLSILIYHDFYLRLLPADSSNVVPLNTFNILNGVQFGTKFFQSIKSIPVGTDLPQTIDNGLSQLIPMRDNMEYKLDLNLQLYCQSKTDHLNLDNLLIDVYRGPGPLLGAPGGSNSKDEKIFHTSRPIVCLALTDSMSPQEIEQLGPSRLDVYDEEWLNTIRIEDKISLESSYETISVFLKTEIAQRNLIIHPESGIKFRMNFEQGLRNLMLRKRFLSYIIGISIFHCIICVLFFITGCTAFIFVRKGQEKSKKHS
partner: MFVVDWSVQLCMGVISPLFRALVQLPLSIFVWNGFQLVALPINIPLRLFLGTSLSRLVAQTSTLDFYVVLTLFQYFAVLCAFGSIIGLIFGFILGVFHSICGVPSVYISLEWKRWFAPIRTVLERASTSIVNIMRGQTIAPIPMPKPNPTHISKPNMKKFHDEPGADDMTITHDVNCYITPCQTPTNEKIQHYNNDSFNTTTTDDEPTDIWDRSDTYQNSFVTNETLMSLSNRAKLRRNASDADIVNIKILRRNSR

Variants of: B1
Settings: with ldb16_yeast LDB16, P25587

effect of a mutation on the interaction | Variant
decreasing interaction strength | MKINVSRPLQFLQWSSYIVVAFLIQLLIILPLSILIYHDFYLRLLPADSSNVVPLNTFNILNGVQFGTKFFQSIKSIPVGTDLPQTIDNGLSQLIPMRDNMEYKLDLNLQLYCQSKTDHLNLDNLLIDVYRGPGPLLGAPGGSNSKDEKIFHTSRPIVCLALTDSMSPQEIEQLGPSRLDVYDEEWLNTIRIEDKISLESSYETISVFLKTEIAQRNLIIHPESPIKFRMNFEQGLRNLMLRKRFLSYIIGISIFHCIICVLFFITGCTAFIFVRKGQEKSKKHS [G225P]
